Experimental data as given in patent US20250093368A1 (BEIJING INSTITUTE OF HEART LUNG AND BLOOD VESSEL DISEASES, published 2025).

B1: Flag tag - S100A8 (expression product from plasmid 1; also the S100A8 chain co-expressed from plasmid 5) (other)
chain: DYKDDDDKLTELEKALNSIIDVYHKYSLIKGNFHAVYRDDLKKLLETECPQYIRKKGADVWFKELDINTDGAVNFQEFLILVIKMGVAAHKKSHEESHKE

Tests used:
[1] = biological target: the molecule itself; experiment: SDS-PAGE of Flag-purified protein, homodimer band at 30 KDa
Description: (§1) (8) SDS-PAGE gel electrophoresis: the supernatant obtained after lysis and the purified protein were mixed with 6×Loading Buffer according to a volume ratio of 5:1 for sample preparation; and the prepared sample was subjected to SDS-PAGE gel electrophoresis together with bovine serum albumin (BSA, purchased from BioFroxx, Cat. No. 4240GR025) and Marker, wherein plasmid 1 and mutant plasmid 1 were the final samples purified by Flag-Tag, plasmid 2 and mutant plasmid 2 were the final samples purified by His-Tag, and plasmid 3 and plasmid 4 were the final samples purified by His-Tag and Flag-Tag. […] In panel C, the “Supernatant” refers to the supernatant obtained after centrifugation during first lysis, and the “Supernatant 2” refers to the supernatant obtained by performing second lysis treatment on the precipitate obtained after first lysis and centrifugation and then performing centrifugation.

[2] = biological target: T1, S100A8 recombinant protein (pET-28a-S100A8 (1-93 aa) expressed protein) (human, UniProt P05109 1-93); experiment: ELISA, B cell supernatant on expressed S100A8 antigen; positive = OD greater than 0.7
T1 construct: Immunogen and ELISA screening antigen, expressed from pET-28a; also called S100A8 antigen; expressed S100A8 antigen
T1 sequence: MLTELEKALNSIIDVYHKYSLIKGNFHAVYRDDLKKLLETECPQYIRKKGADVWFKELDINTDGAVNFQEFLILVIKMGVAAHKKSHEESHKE

[3] = biological target: T2, S100A8 protein in patient sera (human, UniProt P05109 1-93); experiment: Dot Blot, B cell supernatant on patient sera
T2 construct: Native serum protein; also called S100A8 signal in patient serum
T2 sequence (looked up): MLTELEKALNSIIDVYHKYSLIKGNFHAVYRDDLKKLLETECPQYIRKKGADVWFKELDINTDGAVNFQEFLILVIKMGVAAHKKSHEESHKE

[4] = biological target: T3, commercial S100A8 protein (ab167749, Recombinant human MRP8 protein) (human, UniProt P05109 1-93); experiment: ELISA, B cell supernatant on commercial S100A8 protein ab167749; positive = OD greater than 0.7
T3 construct: Bought; also called commercial S100A8 antigen
T3 sequence (looked up): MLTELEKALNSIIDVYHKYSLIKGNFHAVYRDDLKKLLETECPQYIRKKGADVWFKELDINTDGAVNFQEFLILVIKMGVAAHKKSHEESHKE

[5] = biological target: T4, commercial S100A8/S100A9 Heterodimer (R&D) heterodimer protein (UniProt P05109 1-93; P06702 2-114, limits assumed); experiment: ELISA, LEM supernatant, heterodimer coated at 1 µg/mL
T4 construct: Bought, purity >95%; also called S100A8/S100A9 heterodimer protein standard; commercial S100A8/S100A9 protein
T4 sequence (looked up) 1: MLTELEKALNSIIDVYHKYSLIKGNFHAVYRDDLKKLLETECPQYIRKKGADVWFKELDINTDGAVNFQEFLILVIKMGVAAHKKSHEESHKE
T4 sequence (looked up) 2: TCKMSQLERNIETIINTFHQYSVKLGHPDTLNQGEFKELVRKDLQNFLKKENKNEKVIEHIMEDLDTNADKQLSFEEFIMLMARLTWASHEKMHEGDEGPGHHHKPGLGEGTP
Description: The ELISA reaction conditions were as follows: [0196]

[6] = biological target: T5, S100A8/S100A9-1 recombinant protein (expression product from plasmid 5) (human, UniProt P05109 2-93; P06702 1-114); experiment: sandwich ELISA, 5H10 coated at 0.5 µg/mL, 7C4-HRP detecting
T5 construct: also called S100A8/S100A9-1 heterodimer; S100A8/S100A9-1 (S100A9 mutant) heterodimer; not shown: T7-tag
T5 chain 1: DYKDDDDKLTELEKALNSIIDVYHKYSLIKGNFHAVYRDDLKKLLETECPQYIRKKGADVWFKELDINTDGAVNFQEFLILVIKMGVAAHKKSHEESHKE
T5 chain 2: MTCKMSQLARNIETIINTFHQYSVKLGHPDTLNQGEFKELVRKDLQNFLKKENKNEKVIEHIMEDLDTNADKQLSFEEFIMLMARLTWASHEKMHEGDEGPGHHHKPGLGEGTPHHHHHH
Protocol: (1) Experimental steps: [0270] standard: commercial R&D S100A8/S100A9 heterodimer protein, 2-fold gradient dilution from 40 ng/mL, with a total of 8 concentrations, lower limit of 0.625 ng, and boundary value of 40-0.625; [0271] reaction system: 96-well plate reaction system, laboratory buffer; [0272] coating antibody concentration: 5H10 (anti-S100A8 antibody), 0.5 μg/mL; [0273] detecting antibody concentration: 7C4-HRP (directly labeled), antibody dilution ratio of 1:20000 or 1:10000; [0274] TMB development: dilution ratio being 1:2, and color development time being 15 min.

[7] = biological target: T6, S100A9 protein in patient sera (human, UniProt P06702 2-114, limits assumed); experiment: Dot Blot, B cell supernatant on patient sera
T6 construct: Native serum protein; also called S100A9 signal in patient serum
T6 sequence (looked up): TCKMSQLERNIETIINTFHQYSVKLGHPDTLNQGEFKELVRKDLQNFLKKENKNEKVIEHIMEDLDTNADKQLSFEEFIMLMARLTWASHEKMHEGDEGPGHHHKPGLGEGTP

[8] = biological target: T7, commercial S100A9 protein (ab95909, Recombinant Human S100A9 protein) (human, UniProt P06702 1-114); experiment: ELISA, LEM supernatant, antigen coated at 1 µg/mL
T7 construct: Bought; also called commercial A9 protein
T7 sequence (looked up): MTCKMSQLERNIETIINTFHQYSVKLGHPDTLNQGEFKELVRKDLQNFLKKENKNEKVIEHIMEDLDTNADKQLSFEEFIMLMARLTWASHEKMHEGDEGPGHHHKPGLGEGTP
Description: (§2) The ELISA reaction conditions were as follows: [0207]

[9] = biological target: T8, S100A9 recombinant protein (pET-28a-S100A9 (1-114 aa) expressed protein) (human, UniProt P06702 1-114); experiment: ELISA, LEM supernatant, antigen coated at 1 µg/mL
T8 construct: Immunogen and ELISA screening antigen, expressed from pET-28a; also called S100A9 antigen; expressed S100A9 antigen
T8 sequence: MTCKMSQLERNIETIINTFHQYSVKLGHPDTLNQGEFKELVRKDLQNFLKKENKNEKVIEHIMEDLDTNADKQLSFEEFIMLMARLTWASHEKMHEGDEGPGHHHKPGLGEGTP
Description: as §2

[10] = biological target: the molecule itself; experiment: SDS-PAGE of His-purified protein, homodimer band at 34 KDa
Description: as §1

[11] = biological target: the molecule itself; experiment: SDS-PAGE of His-purified protein
Description: as §1

[12] = biological target: B1; experiment: co-expression, purification by His-Tag then Flag-Tag, SDS-PAGE
[13] = biological target: the molecule itself; experiment: SDS-PAGE of protein purified by His-Tag and Flag-Tag
Description: as §1
Except for the synthesized gene of interest (gene of interest S100A8+S100A9-1 in plasmid 5), the construction and expression and purification method for plasmid 5 was the same as that for plasmids 3 and 4, which was not described in detail herein.

Measured: binding result

B1
binds: [1]

B2: 2C2 (antibody, V domains shown)
VH: QSVEESGGRLVTPGGSLTLTCTVSGFSLSSYFMIWVRQAPGKGLEYIGIHSDTGSTDYASWAKGRFTISKTSTTVDLKMTSLTASDTATYFCARDGGNDAYYYFNIWGPGTLVTVSS
VL: AYDMTQTPASVEVAVGGTVTINCQASQSISTALAWYQQKPGQPPKPLIYEASKLASGVPSRFKGSGSGTEFILTISDLECADAATYYCQQGASARNIASNVFGGGTEVVVKG
notes: Rabbit monoclonal IgG against S100A8 (rabbit E15229); Biotin-labeled when used as detecting antibody
binds: [2] | [3] | [4] | [5]

B3: 3D8 (antibody, V domains shown)
VH: QSVEESGGRLVTPGTPLTLTCTVSGIDLSTNPMGWVRQAPGKGLEWIGIIFADTGEIYYATWAKGRFTISETSSTTVDLKITSPTAEDTATYFCVRGSPSSANIWGPGTLVTVSS
VL: AAVLTQTPSPVSAAVGGTVTISCQSSQSVYNNNWLGWYQQKPGQPPKLLIYRASTLASGVPSRFKGSGSGTQFTFTISDLECDDAATYYCAGTYRRNSDNGFGGGTEVVVKG
notes: as for B2
binds: [2] | [3] | [4] | [5]

B4: 5H10 (antibody, V domains shown)
VH: QSVEESGGRLVTPGTPLTLTCTVSGIDLSTNPMGWVRQAPGKGLEWIGIIFADTGEIYYATWARGRFTISETSSTTVDLKITSPTAEDTATYFCVRGSPSSANIWGPGTLVTVSS
VL: AAVLTQTPSPVSAAVGGTVTISCQSSQSVYNNNWLGWYQQKPGQPPKLLIYRASTLASGVSSRFKGSGSGTQFTLTISGLECDDAATYYCAGTYRRNSDNGFGGGTEVVVKG
notes: Rabbit monoclonal IgG against S100A8 (rabbit E15229); Tested as B cell supernatant, LEM supernatant and purified recombinant antibody; biotin-labeled when used as detecting antibody; also called anti-S100A8 monoclonal antibody 5H10
binds: [2] | [3] | [4] | [6] | [5]

B5: 7C4 (antibody, V domains shown)
VH: QSVEESGGRLVTPGTPLTLTCTVSGIDLSSGWMNWVRQAPGGGLEWIGTINSGGSPYYARWAKGRFTLSTTSTTVDLKITSPTTEDTATYFCGSRDFWGPGTLVTVSS
VL: AQVLTQTASPVSAAVGGTVTINCQASQSVYNNNYLAWYQQKPGQPPKRLIYAASNLASGVSSRFKGSGSGTQFTLTISDLQCDDAATYYCSGGYDCDSADCSVFGGGTEVVVKG
notes: Rabbit monoclonal IgG against S100A9 (rabbit E16675); also called 7C4-HRP; 7C4 (biotin-labeled)
binds: [7] | [6] | [5] | [8] | [9]

B6: 8A11 (antibody, V domains shown)
VH: QSVEESGGRLVTPGTPLTLTCTVSGIDLSSGWMNWVRQAPGKGLEWIGVINSYGRTYYARWAKGRFTISITSTTVDLKITSPTTEDTATYFCGSRDFWGPGTLVTVSS
VL: AQVLTQTASPVSAAVGSTVTINCQASQSVYKNNYLAWYQQKPGQPPKRLIYSASTLASGVSSRFKGSGSGTQFTLTISDVQCDDAATYYCGGGYDCDSADCSVFGGGTEVVVKG
notes: Rabbit monoclonal IgG against S100A9 (rabbit E16675); Biotin-labeled when used as detecting antibody; also called 8A11 (biotin-labeled)
binds: [7] | [5] | [8] | [9]

B7: S100A9 - 6 x His tag (expression product from plasmid 2) (other)
chain: MTCKMSQLERNIETIINTFHQYSVKLGHPDTLNQGEFKELVRKDLQNFLKKENKNEKVIEHIMEDLDTNADKQLSFEEFIMLMARLTWASHEKMHEGDEGPGHHHKPGLGEGTPHHHHHH
notes: pET-28a, BamHI/HindIII
binds: [10]

B8: S100A9-1 (E9A) - 6 x His tag (expression product from mutant plasmid 2) (other)
chain: MTCKMSQLARNIETIINTFHQYSVKLGHPDTLNQGEFKELVRKDLQNFLKKENKNEKVIEHIMEDLDTNADKQLSFEEFIMLMARLTWASHEKMHEGDEGPGHHHKPGLGEGTPHHHHHH
notes: pET-28a, BamHI/HindIII; also called mutant S100A9
binds: [11]

B9: T7-tag - S100A9-1 - 6 x His tag (S100A9-1 chain co-expressed from plasmid 4 and plasmid 5) (other)
chain: MTCKMSQLARNIETIINTFHQYSVKLGHPDTLNQGEFKELVRKDLQNFLKKENKNEKVIEHIMEDLDTNADKQLSFEEFIMLMARLTWASHEKMHEGDEGPGHHHKPGLGEGTPHHHHHH
notes: Single chain of the co-expression constructs, written as a molecule of its own for the dimer formation results; also called mutant S100A9; not shown: T7-tag
binds: [12] | [13]
